Assay results published in patent CN118388640A (CHENZHOU NO 1 PEOPLES HOSPITAL, dated 2024).

Molecular target: T1, SARS-CoV-2 Wuhan-Hu-1 S蛋白 (Sino Biological，货号:40589-V08B1) (SARS-CoV-2 Wuhan-Hu-1, UniProt P0DTC2 14-1213)
T1 construct: extracellular domain
Assay: ELISA, S protein coated at 2 μg/mL, antibody at 1 μg/mL

B1: 抗新型冠状病毒SARS-CoV-2的广谱抗体(VSM12-37) (antibody, V domains shown)
VH: EVQLVESGGGLVQPGGSLRLSCAVSGFTVSSNYMSWVRQAPGKGLEWVSLIYSGGSTYYADSVKGRFTVSRDRSKNTLYLQMNSLRAEDTALYYCARDNPRVGSNYWGQGTLVTVSS
VL: DIQMTQSPSSLSASVGDRVTITCQASQDINNYLNWYQQKPGKAPKLLIYDASNLEAGVPSRFSGSGSGTDFTFTISSLQPEDIATYYCQQCDNVPLTFGGGTKVEIKR
notes: also called VSM12-37抗体
binding result: binds
